In the Immune Epitope Database (IEDB) one finds IC50 and Kd data, which are given here for 18 sequences.

As usually defined, the IC50 is the point on the concentration scale where inhibition reaches its midpoint. For orientation: Kd means the constant that tells how readily two partners part at equilibrium.

In one assay the target is HLA-B*18:01. The experiment in a line: IEDB peptide-MHC binding, purified MHC/competitive/radioactivity; ≥ and ≤ were set here for values at or beyond the usual limits of such assays. Conditions: source organism: Hepatitis B virus.
On to VELLSFLPSDF, for which the 50% inhibitory concentration (IC50) stood at 414 nM.

Staying with this assay, now noted: source organism: Human immunodeficiency virus 1.
On to AENLWVTVY, for which the half-inhibitory concentration (IC50) was determined as 51 nM.
For IEAEVIPA, the IC50 worked out at 61 nM.
With NETPGIRYQY, the IC50 came to 179 nM.
Same read-out and setting: the result for QEILDLWVY reads 52 nM.
On to TERQANFL, for which the concentration for half-maximal inhibition (IC50) stood at 304 nM.
Regarding WEFVNTPPL, the IC50 turned out to be 5.9 nM.

The same assay, now with this note: source organism: Plasmodium falciparum.
In the case of DEFKPIVQY, the IC50 came to 3.9 nM.
On to DEVDLYLLM, for which the IC50 was found to be 17 nM.
As to NELNYDNAGI, the 50% inhibitory concentration (IC50) came to 4610 nM.
Turning to RENANQLVV, the 50% inhibitory concentration (IC50) was found to be 757 nM.
The same measure, in the same setting: the result for SENERGYYI reads 301 nM.

For a further assay, the target named is HLA-B*40:02. The assay is described as above. The conditions noted are these: source organism: Hepatitis B virus.
In the case of AELLAACF, the half-maximal inhibitory concentration (IC50) stood at 93 nM.
Same read-out and setting: the result for AELLAACFA reads 50 nM; that for RETVLEYLV, 36 nM.
Regarding VELLSFLPSDF, the IC50 is 480 nM.

Staying with this assay, now noted: source organism: Hepatitis C virus (isolate HCV-K3a/650).
Regarding AEAALENLV, the IC50 was found to be 107 nM.
On the same count and under the same terms, the result for GEIPFYGKAI reads 87 nM.

The assay is the same for the next values; noted with them: source organism: Human immunodeficiency virus 1.
As to AENLWVTVY, the half-maximal inhibitory concentration (IC50) was 90 nM.
Same read-out and setting: the result for AENLYVTVF reads 3.1 nM.
Still for that read-out and setting: the result for IEAEVIPA reads 62 nM; that for NETPGIRYQY, at least 20000 nM; that for QEILDLWVY, 4520 nM.
As for TERQANFL, the half-inhibitory concentration (IC50) was 23 nM.
For the sequence WEFVNTPPL, the 50% inhibitory concentration (IC50) was 8.6 nM.

Still in this assay, the particulars now being: source organism: Plasmodium falciparum.
Regarding DEVDLYLLM, the IC50 was found to be 1020 nM.
Same read-out and setting: the result for RENANQLVV reads 20 nM; that for SENERGYYI, 227 nM.

In another assay the target is HLA-B*44:02. Described as above. Conditions: source organism: Hepatitis B virus.
Regarding AELLAACF, the concentration for half-maximal inhibition (IC50) is 9.3 nM.
With AELLAACFA, the IC50 was 332 nM.
Consider VELLSFLPSDF, for which the IC50 worked out at 299 nM.

The same assay, now with this note: source organism: Human immunodeficiency virus 1.
AENLWVTVY: the half-maximal inhibitory concentration (IC50) turned out to be 66 nM.
Same read-out and setting: the result for AENLYVTVF reads 39 nM; that for IEAEVIPA, 859 nM; that for NETPGIRYQY, 75 nM.
Same read-out and setting: the result for QEILDLWVY reads 264 nM.
As for TERQANFL, the 50% inhibitory concentration (IC50) turned out to be 9050 nM.
Regarding WEFVNTPPL, the IC50 stood at 72 nM.

Still in this assay, the particulars now being: source organism: Plasmodium falciparum.
In the case of DEFKPIVQY, the IC50 came out at 12 nM.
For DEVDLYLLM, the 50% inhibitory concentration (IC50) is 107 nM.
With NELNYDNAGI, the half-maximal inhibitory concentration (IC50) came out at 105 nM.
Regarding RENANQLVV, the IC50 was 638 nM.
Same read-out and setting: the result for SENERGYYI reads 150 nM.

For another assay, the target named is HLA-B*40:01. Described as above. Conditions: source organism: Hepatitis B virus.
For AELLAACF, the concentration for half-maximal inhibition (IC50) was found to be 734 nM.
As to AELLAACFA, the 50% inhibitory concentration (IC50) is 585 nM.
Still for that read-out and setting: the result for RETVLEYLV reads 412 nM.

Still in this assay, the particulars now being: source organism: Hepatitis C virus (isolate HCV-K3a/650).
On to AEAALENLV, for which the IC50 amounted to 245 nM.
The same measure, in the same setting: the result for GEIPFYGKAI reads 146 nM.

The same assay, now with this note: source organism: Human immunodeficiency virus 1.
Consider AENLWVTVY, for which the 50% inhibitory concentration (IC50) came out at 3370 nM.
The same measure, in the same setting: the result for AENLYVTVF reads 17 nM.
For IEAEVIPA, the half-maximal inhibitory concentration (IC50) is 5950 nM.
As for NETPGIRYQY, the IC50 is at least 20000 nM.
In the case of QEILDLWVY, the 50% inhibitory concentration (IC50) stood at 739 nM.
As for TERQANFL, the IC50 worked out at 223 nM.
The same measure, in the same setting: the result for WEFVNTPPL reads 2.5 nM.

The assay is the same for the next values; noted with them: source organism: Plasmodium falciparum.
In the case of DEVDLYLLM, the IC50 is 2920 nM.
The same measure, in the same setting: the result for NELNYDNAGI reads 4130 nM; that for RENANQLVV, 174 nM.
For the sequence SENERGYYI, the half-maximal inhibitory concentration (IC50) is 3730 nM.

The target in another assay is HLA-B*45:01. Described as above. Conditions: source organism: Hepatitis B virus.
On to AELLAACF, for which the half-inhibitory concentration (IC50) was found to be 247 nM.
In the case of AELLAACFA, the half-maximal inhibitory concentration (IC50) was 6.6 nM.
Same read-out and setting: the result for RETVLEYLV reads 205 nM.

Still in this assay, the particulars now being: source organism: Hepatitis C virus (isolate HCV-K3a/650).
For the sequence AEAALENLV, the IC50 was 35 nM.

Still in this assay, the particulars now being: source organism: Human immunodeficiency virus 1.
On to AENLWVTVY, for which the IC50 came out at 68 nM.
As for AENLYVTVF, the IC50 was found to be 69 nM.

Still in this assay, the particulars now being: source organism: Plasmodium falciparum.
As to NELNYDNAGI, the IC50 was 457 nM.
Still for that read-out and setting: the result for RENANQLVV reads 37 nM; that for SENERGYYI, 336 nM.

The target of a further assay is HLA-B*44:03. The description is as above. The conditions noted are these: source organism: Hepatitis B virus.
Regarding AELLAACF, the IC50 worked out at 27 nM.
Same read-out and setting: the result for AELLAACFA reads 59 nM.
With RETVLEYLV, the IC50 stood at 4830 nM.
Same read-out and setting: the result for VELLSFLPSDF reads 412 nM.

Staying with this assay, now noted: source organism: Hepatitis C virus (isolate HCV-K3a/650).
For the sequence AEAALENLV, the concentration for half-maximal inhibition (IC50) is 309 nM.
On the same count and under the same terms, the result for GEIPFYGKAI reads 113 nM.

Still in this assay, the particulars now being: source organism: Human immunodeficiency virus 1.
For the sequence AENLWVTVY, the 50% inhibitory concentration (IC50) was 160 nM.
In the case of AENLYVTVF, the IC50 was 47 nM.
As to IEAEVIPA, the IC50 was found to be 6400 nM.
As for NETPGIRYQY, the concentration for half-maximal inhibition (IC50) is 62 nM.
The same measure, in the same setting: the result for QEILDLWVY reads 172 nM; that for TERQANFL, 2210 nM; that for WEFVNTPPL, 378 nM.

The assay is the same for the next values; noted with them: source organism: Plasmodium falciparum.
In the case of DEFKPIVQY, the IC50 was determined as 401 nM.
Still for that read-out and setting: the result for DEVDLYLLM reads 84 nM; that for NELNYDNAGI, 72 nM.
The same measure, in the same setting: the result for RENANQLVV reads 480 nM.
In the case of SENERGYYI, the IC50 was 91 nM.

Another assay has as its target HLA-B*18:01. The assay is described as follows: IEDB peptide-MHC binding, purified MHC/competitive/radioactivity; filed as Kd, often an IC50 or EC50 that approximates it; ≥ and ≤ were set here for values at or beyond the usual limits of such assays. Conditions: source organism: Hepatitis B virus.
For AELLAACFA, the dissociation constant Kd was determined as 13.5 µM.

For another assay, the target named is HLA-B*40:02. Described as above. Conditions: source organism: Plasmodium falciparum.
Turning to NELNYDNAGI, the Kd was at least 23.6 µM.

The next assay addresses HLA-B*40:01. The assay is described as above. Conditions: source organism: Hepatitis B virus.
For the sequence VELLSFLPSDF, the Kd came out at 5.56 µM.

A further assay deals with HLA-B*45:01. Described as above. Conditions: source organism: Hepatitis B virus.
Turning to VELLSFLPSDF, the Kd was found to be 10.4 µM.

The same assay, now with this note: source organism: Hepatitis C virus (isolate HCV-K3a/650).
For the sequence GEIPFYGKAI, the equilibrium dissociation constant (Kd) is 5.4 µM.

The same assay, now with this note: source organism: Human immunodeficiency virus 1.
IEAEVIPA: the dissociation constant Kd is 0.347 µM.
For the sequence NETPGIRYQY, the Kd was 10.6 µM.
Same read-out and setting: the result for QEILDLWVY reads 6.26 µM; that for TERQANFL, 9.72 µM.
For the sequence WEFVNTPPL, the Kd was 5.21 µM.
